In patent US20230391845A1, “GLP-1, GIP AND GLUCAGON RECEPTOR TRIPLE AGONISTS” (priority 2020, published 2023):
Where no end group is shown, it is not given here. [ ]: non-standard residue; d: D form. Aib = CC(C)(N)C(=O)O

T1: human glucose-dependent insulinotropic polypeptide receptor (human, UniProt P48546 22-466)
T1 sequence (looked up): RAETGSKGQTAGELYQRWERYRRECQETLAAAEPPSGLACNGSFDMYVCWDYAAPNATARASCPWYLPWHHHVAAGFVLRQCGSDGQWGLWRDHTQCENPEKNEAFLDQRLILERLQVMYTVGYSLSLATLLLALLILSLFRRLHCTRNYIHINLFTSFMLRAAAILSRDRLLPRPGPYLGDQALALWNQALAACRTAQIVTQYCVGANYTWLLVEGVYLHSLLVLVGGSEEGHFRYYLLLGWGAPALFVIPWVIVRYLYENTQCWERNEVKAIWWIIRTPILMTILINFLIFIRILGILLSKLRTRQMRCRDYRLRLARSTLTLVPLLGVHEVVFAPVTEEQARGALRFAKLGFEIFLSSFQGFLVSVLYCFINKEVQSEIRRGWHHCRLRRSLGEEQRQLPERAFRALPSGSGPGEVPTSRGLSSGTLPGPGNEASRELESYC

B1: Compound No. 42 (peptide)
peptide: H[Aib]HGTFTSDYSYLLEKQAA[Aib]EFVQWLLEGGPSSGAPPPS-NH2
modifications: not fully specified (residue 16); printed as H-Aib-HGTFTSDYSYLLE-K[(2S)-2-amino-6-[[(2S)-2-amino-6-[[(4S)-4-carboxy-4-(19-carboxynonadecanoylamino)butanoyl]amino]hexanoyl]amino]hexanoyl]-QAA-Aib-EFVQWLLEGGPSSGAPPPS-NH2
B2: Compound No. 43 (peptide)
peptide: H[Aib]HGTFTSDYSILLEKQAA[Aib]EFVQWLLEGGPSSGAPPPS-NH2
modifications: not fully specified (residue 16); printed as H-Aib-HGTFTSDYSILLE-K[(2S)-2-amino-6-[[(2S)-2-amino-6-[[(4S)-4-carboxy-4-(19-carboxynonadecanoylamino)butanoyl]amino]hexanoyl]amino]hexanoyl]-QAA-Aib-EFVQWLLEGGPSSGAPPPS-NH2
B3: Compound No. 37 (peptide)
peptide: H[Aib]HGTFTSDYSIYLEKRAA[Aib]EFVQWLLEGGPSSGAPPPS-NH2
modifications: not fully specified (residue 16); printed as H-Aib-HGTFTSDYSIYLE-K[(2S)-2-amino-6-[[(2S)-2-amino-6-[[(4S)-4-carboxy-4-(19-carboxynonadecanoylamino)butanoyl]amino]hexanoyl]amino]hexanoyl]-RAA-Aib-EFVQWLLEGGPSSGAPPPS-NH2
B4: Compound No. 47 (peptide)
peptide: Y[Aib]QGTFTSDYSYYLEKQAA[Aib]EFVQWLLEGGPSSGAPPPS-NH2
modifications: not fully specified (residue 16); printed as Y-Aib-QGTFTSDYSYYLE-K[(2S)-2-amino-6-[[(2S)-2-amino-6-[[(4S)-4-carboxy-4-(19-carboxynonadecanoylamino)butanoyl]amino]hexanoyl]amino]hexanoyl]-QAA-Aib-EFVQWLLEGGPSSGAPPPS-NH2
B5: Compound No. 39 (peptide)
peptide: H[Aib]HGTFTSDYSIYLEKKYA[Aib]EFVQWLLEGGPSSGAPPPS-NH2
modifications: not fully specified (residue 16); printed as H-Aib-HGTFTSDYSIYLE-K[2-[2-[2-[[2-[2-[2-[[(4S)-4-carboxy-4-(19-carboxynonadecanoylamino)butanoyl]amino]ethoxy]ethoxy]acetyl]amino]ethoxy]ethoxy]acetyl]-KYA-Aib-EFVQWLLEGGPSSGAPPPS-NH2
B6: Compound No. 46 (peptide)
peptide: Y[Aib]QGTFTSDYSILLEKQAA[Aib]EFVQWLLEGGPSSGAPPPS-NH2
modifications: not fully specified (residue 16); printed as Y-Aib-QGTFTSDYSILLE-K[(2S)-2-amino-6-[[(2S)-2-amino-6-[[(4S)-4-carboxy-4-(19-carboxynonadecanoylamino)butanoyl]amino]hexanoyl]amino]hexanoyl]-QAA-Aib-EFVQWLLEGGPSSGAPPPS-NH2
B7: Compound No. 48 (peptide)
peptide: Y[Aib]QGTFTSDYSYLLEKQAA[Aib]EFVQWLLEGGPSSGAPPPS-NH2
modifications: not fully specified (residue 16); printed as Y-Aib-QGTFTSDYSYLLE-K[(2S)-2-amino-6-[[(2S)-2-amino-6-[[(4S)-4-carboxy-4-(19-carboxynonadecanoylamino)butanoyl]amino]hexanoyl]amino]hexanoyl]-QAA-Aib-EFVQWLLEGGPSSGAPPPS-NH2
B8: Compound No. 44 (peptide)
peptide: H[Aib]HGTFTSDYSIYLEKQAA[Aib]EFVQWLLEGGPSSGAPPPS-NH2
modifications: not fully specified (residue 16); printed as H-Aib-HGTFTSDYSIYLE-K[2-[2-[2-[[2-[2-[2-[[(4S)-4-carboxy-4-(19-carboxynonadecanoylamino)butanoyl]amino]ethoxy]ethoxy]acetyl]amino]ethoxy]ethoxy]acetyl]-QAA-Aib-EFVQWLLEGGPSSGAPPPS-NH2
B9: Compound No. 45 (peptide)
peptide: H[Aib]HGTFTSDYSILLEKQAA[Aib]EFVQWLLEGGPSSGAPPPS-NH2
modifications: not fully specified (residue 16); printed as H-Aib-HGTFTSDYSILLE-K[2-[2-[2-[[2-[2-[2-[[(4S)-4-carboxy-4-(19-carboxynonadecanoylamino)butanoyl]amino]ethoxy]ethoxy]acetyl]amino]ethoxy]ethoxy]acetyl]-QAA-Aib-EFVQWLLEGGPSSGAPPPS-NH2
B10: Compound No. 41 (peptide)
peptide: H[Aib]HGTFTSDYSILLEKKYA[Aib]EFVQWLLEGGPSSGAPPPS-NH2
modifications: not fully specified (residue 16); printed as H-Aib-HGTFTSDYSILLE-K[(2S)-2-amino-6-[[(2S)-2-amino-6-[[(4S)-4-carboxy-4-(19-carboxynonadecanoylamino)butanoyl]amino]hexanoyl]amino]hexanoyl]-KYA-Aib-EFVQWLLEGGPSSGAPPPS-NH2
B11: Compound No. 40 (peptide)
peptide: H[Aib]HGTFTSDYSYYLEKQAA[Aib]EFVQWLLEGGPSSGAPPPS-NH2
modifications: not fully specified (residue 16); printed as H-Aib-HGTFTSDYSYYLE-K[2-[2-[2-[[2-[2-[2-[[(4S)-4-carboxy-4-(19-carboxynonadecanoylamino)butanoyl]amino]ethoxy]ethoxy]acetyl]amino]ethoxy]ethoxy]acetyl]-QAA-Aib-EFVQWLLEGGPSSGAPPPS-NH2
B12: Compound No. 38 (peptide)
peptide: H[Aib]HGTFTSDYSIYLEKKYA[Aib]EFVQWLLEGGPSSGAPPPS-NH2
modifications: not fully specified (residue 16); printed as H-Aib-HGTFTSDYSIYLE-K[(2S)-2-amino-6-[[(2S)-2-amino-6-[[(4S)-4-carboxy-4-(17-carboxyheptadecanoylamino)butanoyl]amino]hexanoyl]amino]hexanoyl]-KYA-Aib-EFVQWLLEGGPSSGAPPPS-NH2

target: human glucagon receptor (human, UniProt P47871 26-477); test: cell-based or functional assay
Sequence (P47871 26-477): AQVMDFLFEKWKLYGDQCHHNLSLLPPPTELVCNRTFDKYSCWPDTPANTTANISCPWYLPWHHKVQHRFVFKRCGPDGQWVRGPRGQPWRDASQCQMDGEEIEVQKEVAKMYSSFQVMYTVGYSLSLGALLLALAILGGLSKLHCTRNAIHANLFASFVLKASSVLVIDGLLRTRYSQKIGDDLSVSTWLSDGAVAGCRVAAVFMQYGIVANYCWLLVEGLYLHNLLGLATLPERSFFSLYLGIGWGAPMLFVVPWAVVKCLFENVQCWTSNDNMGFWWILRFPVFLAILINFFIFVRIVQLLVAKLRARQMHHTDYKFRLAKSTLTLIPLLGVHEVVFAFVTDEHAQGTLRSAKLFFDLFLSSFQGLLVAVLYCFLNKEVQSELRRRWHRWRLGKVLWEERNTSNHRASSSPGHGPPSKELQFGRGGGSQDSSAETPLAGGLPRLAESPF

Binder	hGcgR CRE Luc EC50 (pM)
B1	8 pM
B2	10.8 pM
B3	11.8 pM
B4	28.7 pM
B5	12.9 pM
B6	25 pM
B7	12.6 pM
B8	45.2 pM
B9	6.8 pM
B10	7.6 pM
B11	36.4 pM
B12	6.4 pM

target: T1, human glucose-dependent insulinotropic …; test: cell-based or functional assay

Binder	hGIPR CRE Luc EC50 (pM)
B1	3.8 pM
B2	2.8 pM
B3	10.8 pM
B4	14.9 pM
B5	17.9 pM
B6	3 pM
B7	9.2 pM
B8	6.1 pM
B9	1.9 pM
B10	9.3 pM
B11	5.7 pM
B12	13.1 pM

target: human glucagon-like peptide 1 receptor (human, UniProt P43220 24-463); test: cell-based or functional assay

Binder	hGLP-1R CRE Luc EC50 (pM)
B1	1.9 pM
B2	3 pM
B3	1.8 pM
B4	5.6 pM
B5	4.4 pM
B6	8.3 pM
B7	10.1 pM
B8	1.8 pM
B9	2.4 pM
B10	4.3 pM
B11	3.7 pM
B12	2.8 pM
